# Substrate: N=C(N)NC(=N)N
# Assay: purified protein
# Assay type: biochemical, Pseudomonas sp. KHPS1
# Details: 100 mM potassium phosphate, pH 8.0, 25 °C, 0.5 mM NADH, 0.5 mM 2-oxoglutarate, 1.5 U GDH
protein,measurement,value
"BguH (Pseudomonas sp. KHPS1) (protein, N-terminal His6 tag (pET28b), E. coli codon-optimised synthetic gene, E. coli BL21(DE3)-RIPL host) MSERNHEKGMLLAIEQALKAVASGEPPFGVVILDAQGELVAATHDEVNTRGDMSAHAETLAVRAACQVRGPSLEGCFLYTTCEPCPMCFTTAWLARIGGVVYATTMDEVHKILGDAQRELRVPVTQMNDLSGEPVTLVKGVLRDRCLQLFREHAATLATTK",Km,620 ± 160 µM
same,kcat,8.1 ± 0.8 s⁻¹

# — article PMC11647477, “Biochemical and genomic evidence for converging metabolic routes of metformin and biguanide breakdown in environmental Pseudomonads” (The Journal of Biological Chemistry, 2024)
